The results in this text go back to patent publication US20230389573A1.

In assay [1] the target is SOP1 gelatine extracted from blue whiting skin and bone.
The target of assay [2] is SOP2 gelatine extracted from blue whiting skin and bone.
In assay [3] the target is Angiotensin-converting enzyme-I (ACE-1).
Assay [4] shares this target. The source holds these as a separate data set.

Consider “Alcalase (EC number 3.4.21.62) (from UniProt P00780) (enzyme)”, for which the figures for the degree of hydrolysis (DH) after 4 h, pH-stat method in assay [1] and in assay [2] were 1.87% and 2.54%, respectively.
“Blue whiting 3 KDa permeate (blood water fraction) (pool or library)”: the % ACE-I inhibition at 1 mg/mL in assay [3] came to 28.9%. Moreover, in the assay with Renin, the % Renin inhibition at 1 mg/mL was determined as 10.6%.
Consider “Blue whiting 10 KDa permeate (blood water fraction) (pool or library)”, for which, in assay [3], the % ACE-I inhibition at 1 mg/mL came to 33.1%.
“Blue whiting retentate (blood water fraction) (pool or library)”: in assay [3], the % ACE-I inhibition at 1 mg/mL was determined as 59.4%.
As for “Mackerel 3 KDa permeate (blood water fraction) (pool or library)”, the % ACE-I inhibition at 1 mg/mL in assay [3] came to 83.9%. For the same substance, the % Renin inhibition at 1 mg/mL with Renin amounted to 21%.
Take “Mackerel 10 KDa permeate (blood water fraction) (pool or library)”: the % ACE-I inhibition at 1 mg/mL in assay [3] stood at 96.9%.
The same measure, in the same setting: under “Mackerel retentate (blood water fraction) (pool or library)” stands 95.4%.
Regarding “Papain (EC number 3.4.22.2) (from UniProt P00784) (enzyme)”, the degree of hydrolysis (DH) after 4 h, pH-stat method in assay [1] is 20.4%; in assay [2] it was 19.4%.
As for “SOP1 gelatine alcalase hydrolysate (blue whiting skin and bone) (pool or library)”, the % ACE-1 inhibition at 1 mg/ml in assay [4] was determined as 26.8%.
Regarding “SOP1 gelatine papain hydrolysate (blue whiting skin and bone) (pool or library)”, the % ACE-1 inhibition at 1 mg/ml in assay [4] came out at 73.1%.
On to “SOP2 gelatine alcalase hydrolysate (blue whiting skin and bone) (pool or library)”, for which, in assay [4], the % ACE-1 inhibition at 1 mg/ml turned out to be 25.1%.
Regarding “SOP2 gelatine papain hydrolysate (blue whiting skin and bone) (pool or library)”, the % ACE-1 inhibition at 1 mg/ml in assay [4] is 71.1%.
Turning to “≤3 KDa peptide fraction of the SOP1 gelatine alcalase hydrolysate (pool or library)”, the % ACE-1 inhibition at 1 mg/ml in assay [4] was 84.2%.
In the case of “≤3 KDa peptide fraction of the SOP1 gelatine papain hydrolysate (pool or library)”, the % ACE-1 inhibition at 1 mg/ml in assay [4] was determined as 80.5%.
On to “≤3 KDa peptide fraction of the SOP2 gelatine alcalase hydrolysate (pool or library)”, for which the % ACE-1 inhibition at 1 mg/ml in assay [4] is 87.1%.
Turning to “≤3 KDa peptide fraction of the SOP2 gelatine papain hydrolysate (pool or library)”, the % ACE-1 inhibition at 1 mg/ml in assay [4] turned out to be 84.5%.
